assay: soluble on expression in E. coli; label from the status in PepcDB or PDB records

Sequence	soluble on expression in E. coli
MVLPKSKNQIGLGRAIQSDFTKNRRNRKGGLKHIVDSDPKAHRAALRSVTHETDLDEFLNTAELGEVEFIAEKQNVTVIQNPEQNPFLLSKEEAARSKQKQEKNKDRLTIPRRPHWDQTTTAVELDRMERESFLNWRRNLAQLQDVEGFIVTPFERNLEIWRQLWRVIERSDVVVQIVDARNPLFFRSAHLEQYVKEVGPSKKNFLLVNKADMLTEEQRNYWSSYFNENNIPFLFFSARMAAEANERGEDLETYESTSSNEIPESLQADENDVHSSRIATLKVLEGIFEKFASTLPDGKTKMTFGLVGYPNVGKSSTINALVGSKKVSVSSTPGKTKHFQTINLSEKVSLLDCPGLVFPSFATTQADLVLDGVLPIDQLREYTGPSALMAERIPKEVLETLYTIRIRIKPIEEGGTGVPSAQEVLFPFARSRGFMRAHHGTPDDSRAARILLKDYVNGKLLYVHPPPNYPNSGSEFNKEHHQKIVSATSDSITEKLQRTAISDNTLSAESQLVDDEYFQENPHVRPMVKGTAVAMQGPVYKGRNTMQPFQRRLNDDASPKYPMNAQGKPLSRRKARQLTALELGVSPEALSSATSKKHNKKNKRSKQRSGVVIDDY	soluble
MVNIMDEIIVVTTPTIPGYKIIEVKGIARGGIVMATHLGRDILALLRNIKGGEVKEYTQMMAEAREEALRRMIEHAKKLGANAVVNFRFATSNVGGGMAEVYAYGTAVVVEREKMASMTGGQQMGRIRIRLEHHHHHH	soluble
MVPELKQISRVEAMRLGPGWSHSCHAMLYAANPGQLFGRIPMRFSVLMQMRFDGLLGFPGGFVDRRFWSLEDGLNRVLGLGLGCLRLTEADYLSSHLTEGPHRVVAHLYARQLTLEQLHAVEISAVHSRDHGLEVLGLVRVPLYTQKDRVGGFPNFLSNAFVSTAKCQLLFALKVLNMMPEEKLVEALAAATEKQKKALEKLLPASSAHHHHHH	soluble
MVRLIHTLADHGDDVSCCAFSAALLATCSLDKTIRLYSLSDFAELPYSPLKFHTYAVHCCCFSPSGHVLASCSTDGTTVLWSSHSGHTLTVLEQPGGSPVRVCCFSPDSAYLASGAADGSIALWNAQTYKLYRCGSVKDSSLVACAFSPDGGLFVTGSSGGDLTVWDDRMRCLHSEKAHDLGITCCSFSSQPLSGGEGLQSYQLASCGQDCEIKLWAVTITRVLGFELKYKSTLSGHCAPVLACAFSHDGKMLASGSVDKSVIIHGIGPQSVLHTLTQHTRYVTTCAFAPNTLLLATGSMDKTVNIWQFDLETPCQGSMNDPLKHFTEEWSEEDVSVWLRAQGLEDLVGIFRANNIDGKELLHLTKESLAGDLKIESLGLRSKVLRSIEELRAKMDSLSSGIPDEFICPITRELMKDPVIASDGYSYEREAMESWIHKKKRTSPMTNLALPSLVLTPNRTLKMAINRWLETHEK	soluble
MVRVKVNDRIVEVPPGTSVMDAVFHAGYDVPLFCSEKHLSPIGACRMCLVRIGLPKKGPDGKPLLNEKGEPEIQWQPKLAASCVTAVADGMVVDTLSDVVREAQAGMVEFTLLNHPLDCPTCDKGGACELQDRTVEYGLYEKYYQKGPLELPVYTRFEFTRRHVDKHHPLSPFVILDRERCIHCKRCVRYFEEVPGDEVLDFIERGVHTFIGTMDFGLPSGFSGNITDICPVGALLDLTARFRARNWEMEETPTTCALCPVGCGITADTRSGELLRIRAREVPEVNEIWICDAGRFGHEWADQNRLKTPLVRKEGRLVEATWEEAFLALKEGLKEARGEEVGLYLAHDATLEEGLLASELAKALKTPHLDFQGRTAAPASLFPPASLEDLLQADFALVLGDPTEEAPILHLRLSEFVRDLKPPHRYNHGTPFADLQIKERMPRRTDKMALFAPYRAPLMKWAAIHEVHRPGEEREILLALLGDKEGSEMVAKAKEAWEKAKNPVLILGAGVLQDTVAAERARLLAERKGAKVLAMTPAANARGLEAMGVLPGAKGASWDEPGALYAYYGFVPPEEALKGKRFVVMHLSHLHPLAERYAHVVLPAPTFYEKRGHLVNLEGRVLPLSPAPIENGEAEGALQVLALLAEALGVRPPFRLHLEAQKALKARKVPEAMGRLSFRLKELRPKERKGAFYLRPTMWKAHQAVGKAQEAARAELWAHPETARAEALPEGAQVAVETPFGRVEARVVHREDVPKGHLYLSALGPAAGLRVEGRVLVPAGGEA	soluble
MVSEREQLACLVQQWNENRLDLFHLSYPTEDLEVEGVMRFYFQDGGEKVLTKCVRVSSTATTRAVVDALSEKFLPDLKMLSNDTYSLWEVHENGEERKLLDEEKPLVVQLQWHKDDREGRFLLKKDAAPPVSLLNLQEADQKNTRFAKKKDKEPKKKNQKNFVQVNGGREEAQSQDDIYKQVPFNTFTRTISNPEAVMRKRREKKLETKLKEMMFGGSLKVYGGEIVPTRPYVSILAEINENADRILGAALEKYGLEHSKDDFILVEVSNDDDRKSMSDLREIDGRPIPPTECPLFEMTARSGNGENGFDSFLAIKRKPHDYQVPSTSVVAPSSVTLPMSPLTSLPPQIHNLPVLIVMNNDGHLSTHRITLHEGVTEVGSDSQMSNFSQHNIYLDGPDIRGRHAAIAFMEGVVTLTPSTRDAYLEVNGHQLMQTEILRDGDHIRIGADHSFKFSTSSSQANQINSTNISNSNQRHFQQQTFYPEMADSRASTARCAPSDYCSLPQQNDYYPPSMSGSSVSSSRQEDLMMHSNNNILPPYSTKSAQEPLQLPLSIQIGDYNVWDFLAEVMSNRAATSSEMSTFRLSPAYSLYLALRSFHTHNKPYSVQFFSRIESNFKQIAQECSSKDDLIFWLANASEFNHLVERDTELKASRYGKISVEIERIFRRLVAVLQSVIRPAARALLDIHLNDHDATGDVIHLLDTTMRQARICGLNAALTIQLCGHLLHMVNAFVFNSLVSVNLPAAQLNTRLGKCLQYRIESIHRFCERMGVEMAAECHLDRSRQAANLLATQKNDVAALGSTCYKLNSLQVVHILSGFEPDDGEIPCDDDVVDRICRLAEKQADKLTLEDGQRVTLEESDELNLPFLIPQDGYFVEQFRTVPDGLWQYLQQLQHRRLCHTVSLTPAPPAAMTHSMHAMHIGASDAHYHQHQHQQQQNPIVRSVSQTTLTSIPTTQFGDSFGSAVSDTISKVTLRKNGGGIGLSIVAAQGVGDRQMGIYVKKVVEGTPAAHDGRLETGDQLLSVNGHSLIGISQEEFVFQ	not soluble
MVSNPVHGLPFLPGTSFKDSTKTAFHRSQTLSYRNGYAIVRRPTVGIGGDRLQFNQLSQAELDELASKAPVLTYGQPKQAPPADFIPAHVAFDKKVLKFDAYFQEDVPMSTEEQYRIRQVNIYYYLEDDSMSVIEPVVENSGILQGKLIKRQRLAKNDRGDHYHWKDLNRGINITIYGKTFRVVDCDQFTQVFLESQGIELNPPEKMALDPYTELRKQPLRKYVTPSDFDQLKQFLTFDKQVLRFYAIWDDTDSMYGECRTYIIHYYLMDDTVEIREVHERNDGIDPFPLLMNRQRVPKVLVENAKNFPQCVLEISDQEVLEWYTAKDFIVGKSLTILGRTFFIYDCDPFTRRYYKEKFGITDLPRIDVSKREPPPVKQELPPYNGFGLVEDSAQNCFALIPKAPKKDVIKMLVNDNKVLRYLAVLESPIPEDKDRRFVFSYFLATDMISIFEPPVRNSGIIGGKYLGRTKVVKPYSTVDNPVYYGPSDFFIGAVIEVFGHRFIILDTDEYVLKYMESNAAQYSPEALASIQNHVRKREAPAPEAESKQTEKDPGVQELEALIDTIQKQLKDHSCKDNIREAFQIYDKEASGYVDRDMFFKICESLNVPVDDSLVKELLRMCSHGEGKINYYNFVRAFSN	soluble
MVSRHIPERLKKKIYQEANMTCPNCGERDVSTFEIHHIQPFVDVKKHEERNLILLCSNCHSKATVGELTEIEVLRLKVGLISSSSGQSKETMPSNVITLDSVKNHGVIANQVTLNNSPAKVVLLPAVGSIASSLKHQNYIKYLIDKYHAYKIVEVGKSNMKYPVFYNALKRKFGAKWDMVPIDRFLELSTYIQDRIEKTVLGKKLKAQGKKSYSTFEEYLAKNCSLEHHHHHH	not soluble
MVTKTTLASATSGLLLLAVVAMSGCTPRPQGPGPAAEKFFAALAIGDTASAAQLSDNPNEAREALNAAWAGLQAAHLDAQVLSAKYAEDTGTVAYRFSWHLPKDRIWTYDGQLKMARDEGRWHVRWTTSGLHPKLGEHQTFALRADPPRRASVNEVGGTDVLVPGYLYHYSLDAGQAGRELFGTAHAVVGALHPFDDTLNDPQLLAEQASSSTQPLDLVTLHADDSNRVAAAIGQLPGVVITPQAELLPTDKHFAPAVLNDVKKAVVDELDGKAGWRVVSVNQNGVDVSVLHEVAPSPASSVSITLDRVVQNAAQHAVNTRGGKAMIVVIKPSTGEILAIAQNAGADADGPVATTGLYPPGSTFKMITAGAAVERDLATPETLLGCPGEIDIGHRTIPNYGGFDLGVVPMSRAFASSCNTTFAELSSRLPPRGLTQAARRYGIGLDYQVDGITTVTGSVPPTVDLAERTEDGFGQGKVLASPFGMALVAATVAAGKTPVPQLIAGRPTAVEGDATPISQKMIDALRPMMRLVVTNGTAKEIAGCGEVFGKTGEAEFPGGSHSWFAGYRGDLAFASLIVGGGSSEYAVRMTKVMFESLPPGYLA	not soluble
MVVTRIAPSPTGDPHVGTAYIALFNYAWARRNGGRFIVRIEDTDRARYVPGAEERILAALKWLGLSYDEGPDVAAPTGPYRQSERLPLYQKYAEELLKRGWAYRAFETPEELEQIRKEKGGYDGRARNIPPEEAEERARRGEPHVIRLKVPRPGTTEVKDELRGVVVYDNQEIPDVVLLKSDGYPTYHLANVVDDHLMGVTDVIRAEEWLVSTPIHVLLYRAFGWEAPRFYHMPLLRNPDKTKISKRKSHTSLDWYKAEGFLPEALRNYLCLMGFSMPDGREIFTLEEFIQAFTWERVSLGGPVFDLEKLRWMNGKYIREVLSLEEVAERVKPFLREAGLSWESEAYLRRAVELMRPRFDTLKEFPEKARYLFTEDYPVSEKAQRKLEEGLPLLKELYPRLRAQEEWTEAALEALLRGFAAEKGVKLGQVAQPLRAALTGSLETPGLFEILALLGKERALRRLERALA	soluble
MVWFFEYYDGCGLAIKVKKKLYEAEGVQKVEIYETESMGKMLVIDGKIQLTELDEPFYHEMLVHVPMLSHENPRKVAVIGGGDGGALREVLKHNVERAVLVDIDRNVIDLSRKFLKIDHGAFEDERVEIAIMDGKEFLRDCEIFDVIIVDSTDPVGVSDTLFDREFFELARQKCDVISLQSQSPLIQKEYFRTLLVNSAPFERRDVYLSCVPTYPLALWSFIIGGEYDFSNLEERFERIKGKTVHYNPDVHRAAFALPEWLKKEVEACILEHHHHHH	soluble
MVYLLDLSGVYCEPVEPRLLRLLAEESGEPVFYLSEAFYALLPRLKAEGAQALEALFPGASRLYPKAFRPRGLAFPEPFHLVSDLPPPEGVLAYHAPDKLEALALALEALGLAPGEAVYWDDNPLWVERARGLGVRAELFLP	soluble
MWIEIICGLVIYKLVRRFFYDDEFSDVETSDSTALFSVAHRLEKLYGGKAYVGLRIPDADTASRQDIDVVLVTKGDVVVISVKNLSGIVTVTSDGSWVCEGGKHHTTETFPDPLAEVKKQASVLESYLEQRGVTLLEGNVSCKVVIPNPSFRTIHAFPSEVITYEDWQQLKPVSKSKISGWVKGAFSTGKEMQESSHQKLNFILGTAPTWDRVELKSSKIVLGEFLEFKGKQEDTLALRNIKRSKVDRVSIQKTSMFGL	not soluble
MWIPSKLTRPGRLHNAIVRPRVLDLLQQAPYYKLVLFRSPAGYGKTTMAAQWLSDKPNVGWYSIDDSDNDGFRFVNYLLQALNKATNFSCSNAQKLAEKRQISSLRSLFSEVFAEMADFHQECYVVLDDYHLITNDEIHESMRFFLKHMPDNLTVVVTSRAAPPLGTANLRVRDLMIEIGNEMLAFDTEETTRFFNQRIADGIDEDMANSLRTYVEGWPSAMQLIALQAQHQNRTLAQTVESVSQFNHAHLWDYLVEEVFDLLDHETRHFLMQVSVLDHFNDELVFALTQREDALGLIESLNRYGLFIYPLEGEHNWFRFHNLFGEFLSHERQARIPQQEKDLHRNAAVAWLQQKSPHQAIHHAQKSNDKDLVVEILNEFGWKMFNQGELSTLEHAINKLDAELLFSHPKLTMLRAWLAQSQHRYNQVGQLLEEAEEEHKKRNIELDIHYQGQA	not soluble

— the DeepSol protein solubility set
